Key:
[1] = target: Acidovorax facilis CCTCC NO: M 209044 nitrilase AcN-F168V (SEQ ID No. 2) mutant G180D/A205C, SEQ ID No. 10 (Acidovorax facilis, UniProt Q1W2L4); assay: Kinetic parameters of the nitrilase double mutant G180D/A205C; assay type: biochemical; conditions: pH 7.0, 20 mM phosphate buffer, 45° C.
Protocol: (§1) The kinetic parameters of the purified protein in example 3 were determined, using 1-cyanocyclohexylacetonitrile as the substrate and the pure enzyme solutions of AcN-F168V, G180D, A205C, G180F, and G180D/A205C as the catalyst.
(§2) 10 mL of the reaction system was as follows: the purified enzyme solution (165 U/g) was diluted 10 times with a pH 7.0, 20 mM phosphate buffer and the final concentration of the purified nitrilase was 0.2 mg/mL. The resulting enzyme solution was put into a reaction container, added with the substrate at final concentrations of 6.75-40.49 mM (6.75, 13.50, 20.24, 26.99, 33.74 and 40.49 mM, respectively) and added with a pH 7.0, 20 mM phosphate buffer as the reaction medium up to 10 mL, the reaction solution was reacted at 45° C. and 600 rpm for 5 min, 500 μL of the sample was taken out, 500 μL of 2 M HCl was added to terminate the reaction, and the concentration of 1-cyanocyclohexyl acetic acid in the reaction solution was determined by HPLC (The detection and analysis conditions are the same as that in example 4).
(§3) Collected test data was used to conduct nonlinear fitting by Origin, thereby obtaining the Km value and Kcat value of the nitrilase E. coli BL21 (DE3)/pET-28b (+)-AcN-F168V and its combinatorial mutants E. coli BL21 (DE3)/pET-28b (+)-AcN-G180D, E. coli BL21 (DE3)/pET-28b (+)-AcN-G180F, E. coli BL21 (DE3)/pET-28b (+)-AcN-A205C and E. coli BL21 (DE3)/pET-28b (+)-AcN-G180D/A205C as shown in table 2.

N#CCC1(C#N)CCCCC1 [2] = assay: Kinetic parameters of the nitrilase mutant A205C; assay type: biochemical, Acidovorax facilis CCTCC NO: M 209044; conditions: other: A205C, pH 7.0, 20 mM phosphate buffer, 45° C., 6.75-40.49 mM substrate
Protocol: as §1, §2, §3

N#CCC1(C#N)CCCCC1 [3] = assay: Kinetic parameters of the nitrilase mutant G180D; assay type: biochemical, Acidovorax facilis CCTCC NO: M 209044; conditions: other: G180D, pH 7.0, 20 mM phosphate buffer, 45° C., 6.75-40.49 mM substrate
Protocol: as §1, §2, §3

N#CCC1(C#N)CCCCC1 [4] = assay: Kinetic parameters of the nitrilase mutant G180F; assay type: biochemical, Acidovorax facilis CCTCC NO: M 209044; conditions: other: G180F, pH 7.0, 20 mM phosphate buffer, 45° C., 6.75-40.49 mM substrate
Protocol: as §1, §2, §3

N#CCC1(C#N)CCCCC1 [5] = assay: Kinetic parameters of the nitrilase, purified AcN-F168V (parent); assay type: biochemical, Acidovorax facilis CCTCC NO: M 209044; conditions: other: AcN-F168V, pH 7.0, 20 mM phosphate buffer, 45° C., 6.75-40.49 mM substrate
Protocol: as §1, §2, §3

## N#CCC1(C#N)CCCCC1 [1-cyanocyclohexylacetonitrile]
[1]
  Kcat: 24139 s⁻¹
  Kcat/Km: 341.236 M⁻¹ s⁻¹
  Vmax: 4.78 ± 0.73 mmolmg^−1min^−1
[1]; 6.75-40.49 mM substrate
  Km: 19.7 ± 7.4 mM

## Acidovorax facilis CCTCC NO: M 209044 nitrilase AcN-F168V (SEQ ID No. 2) mutant A205C, SEQ ID No. 8 (Acidovorax facilis; A205C/F168V)
N#CCC1(C#N)CCCCC1 [2]
  Km: 3.40 ± 0.78 mM
  Vmax: 1630 µmol/min/mg
  kcat: 8317 s⁻¹

## Acidovorax facilis CCTCC NO: M 209044 nitrilase AcN-F168V (SEQ ID No. 2) mutant G180D, SEQ ID No. 4 (Acidovorax facilis; F168V/G180D)
N#CCC1(C#N)CCCCC1 [3]
  Km: 3.21 ± 1.41 mM
  Vmax: 1980 µmol/min/mg
  kcat: 6624 s⁻¹

## Acidovorax facilis CCTCC NO: M 209044 nitrilase AcN-F168V (SEQ ID No. 2) mutant G180F, SEQ ID No. 6 (Acidovorax facilis; F168V/G180F)
N#CCC1(C#N)CCCCC1 [4]
  Km: 5.88 ± 1.58 mM
  Vmax: 2350 µmol/min/mg
  kcat: 7612 s⁻¹

## Acidovorax facilis CCTCC NO: M 209044 nitrilase AcN-F168V, SEQ ID No. 2 (Acidovorax facilis; F168V)
N#CCC1(C#N)CCCCC1 [5]
  Km: 16.25 ± 5.37 mM
  Vmax: 1530 µmol/min/mg
  kcat: 5573 s⁻¹

— patent US12428656B2, “Nitrilase mutant and application thereof in the synthesis of 1-cyanocyclohexyl acetic acid” (priority 2020, dated 2025)
